Literature values, collected in PMC10968392.

Molecular target: SARS-CoV-2 spike protein (cited Kd) (SARS-CoV-2) (UniProt P0DTC2)
Test: not stated here (previous study)
Details: PBSMCT: DPBS, 1 mM MgCl2, 1 mM CaCl2, 0.025% Tween-20; 25 °C, 1 h; pH not stated

Sequence | Kd [nM]
GAACATTGGCGTCCGTGAGCAGCTCGTGGTTGTTTGCTTGTATACTTTTGTGGTTTATCTTGTTTCTGATCACTTCCTCAAACGCCCAA [SpS1-C4 aptamer] | 1.81
GAACATTGGCGTCCGTGAGTGAGACCATAGTCCAGCGAACTAAACCTACCCTAAAGGGCAAGGAAGACGGGCACTTCCTCAAACGCCCAA [SpS1-C1 aptamer] | 1.47
